In publication PMC12186524:

What was measured:
[1] = target: ArbB2 Met160Ala (Coffea arabica)
[2] = target: ArbB2 Pro242Ala (Coffea arabica)

GNTLKDFESKPGSFLWGYQG [ArbA2_(58–77) (ArbA2-FLWGY)]
loss of activity (relative conversion of ArbA2-FLWGY to product) against ArbB2 (% loss of activity) [1]: 60 | loss of activity (relative conversion of ArbA2-FLWGY to product) against ArbB2 (% loss of activity) [2]: 90
